Tests used:
[1] = biological target: T1, huTNC (recombinant human TnC antigen) (human, UniProt P24821 984-1798, biotin on the C-terminal avi-tag where used biotinylated (Examples 5 and 10)); assay: SPR Biacore T200, biotinylated TnC on SA chip, IgG as analyte, 1:1 fit (apparent, bivalent)
T1 sequence: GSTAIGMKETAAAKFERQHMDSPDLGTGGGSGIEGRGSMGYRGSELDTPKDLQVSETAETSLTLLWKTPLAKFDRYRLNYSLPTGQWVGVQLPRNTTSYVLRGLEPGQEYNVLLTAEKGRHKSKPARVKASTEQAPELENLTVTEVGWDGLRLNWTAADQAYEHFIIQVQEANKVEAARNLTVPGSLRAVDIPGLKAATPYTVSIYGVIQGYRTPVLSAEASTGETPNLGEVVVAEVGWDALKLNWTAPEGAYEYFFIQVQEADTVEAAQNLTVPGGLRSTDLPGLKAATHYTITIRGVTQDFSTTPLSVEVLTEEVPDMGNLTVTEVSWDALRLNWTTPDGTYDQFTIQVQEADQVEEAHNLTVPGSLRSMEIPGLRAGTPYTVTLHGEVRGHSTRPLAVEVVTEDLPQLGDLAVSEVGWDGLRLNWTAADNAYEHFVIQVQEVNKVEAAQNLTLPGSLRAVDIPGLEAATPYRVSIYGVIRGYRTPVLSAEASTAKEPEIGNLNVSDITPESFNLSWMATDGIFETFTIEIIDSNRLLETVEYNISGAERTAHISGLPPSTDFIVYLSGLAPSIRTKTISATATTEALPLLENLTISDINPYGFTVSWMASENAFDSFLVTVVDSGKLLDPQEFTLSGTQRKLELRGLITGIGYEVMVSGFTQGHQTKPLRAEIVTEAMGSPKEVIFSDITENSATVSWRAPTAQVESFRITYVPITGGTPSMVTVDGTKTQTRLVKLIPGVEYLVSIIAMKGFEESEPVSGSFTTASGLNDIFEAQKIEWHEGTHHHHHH
Protocol: (§1) Binding of the anti-TnC IgGs 18D4, 11C7 and the Fab fragment of anti-TnC 18D4 to human, murine and cynomolgus TnC (antigens according to Table 4) was assessed by surface plasmon resonance (SPR). All SPR experiments were performed on a Biacore T200 at 25° C. with HBS-EP as running buffer (0.01 M HEPES pH 7.4, 0.15 M NaCl, 3 mM EDTA, 0.005% Surfactant P20, Biacore, Freiburg/Germany).
(§2) A 20 μg/ml stock solution of biotinylated human, murine or cynomolgus TnC was injected on a SA chip, with the aim to immobilize up to 100 RU using the immobilization wizard function.
(§3) An additional dissociation step of 1800s was performed for the highest concentration of IgG. After each step the surface was regenerated following two sequential injections of 10 mM glycine pH2.1 for 60 s. Bulk refractive index differences were corrected for by subtracting the response obtained in a reference flow cell without TNC. Affinity and avidity were calculated using the Langmuir 1:1 kinetic model. However, as the KD for the 1:1 fitting of bivalent interactions is an apparent value only, it should only be used for comparisons.

[2] = biological target: T2, muTNC (recombinant murine TnC antigen) (mouse, biotin on the C-terminal avi-tag where used biotinylated (Example 5)); assay: as above
T2 construct: GST may have been cleaved off by thrombin; The text says this construct lacks the C domain; also called mouse TnC
T2 chain: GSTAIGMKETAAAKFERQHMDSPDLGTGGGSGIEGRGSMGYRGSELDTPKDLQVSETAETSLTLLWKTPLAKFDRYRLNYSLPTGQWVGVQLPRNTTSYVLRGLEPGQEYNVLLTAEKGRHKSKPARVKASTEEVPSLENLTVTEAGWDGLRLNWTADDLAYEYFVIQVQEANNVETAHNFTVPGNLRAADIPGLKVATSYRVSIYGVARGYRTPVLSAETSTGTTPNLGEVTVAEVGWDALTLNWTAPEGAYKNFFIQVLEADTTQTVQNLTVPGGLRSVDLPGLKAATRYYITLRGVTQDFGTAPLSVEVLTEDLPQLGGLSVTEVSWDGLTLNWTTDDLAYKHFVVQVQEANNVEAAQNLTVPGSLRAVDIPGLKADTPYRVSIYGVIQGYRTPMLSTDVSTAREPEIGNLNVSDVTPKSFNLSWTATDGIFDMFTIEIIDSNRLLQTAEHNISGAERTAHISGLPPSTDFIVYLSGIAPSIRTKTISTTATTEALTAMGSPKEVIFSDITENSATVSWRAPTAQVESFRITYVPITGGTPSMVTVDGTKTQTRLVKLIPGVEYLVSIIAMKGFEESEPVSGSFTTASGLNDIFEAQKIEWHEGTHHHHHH
Protocol: as §1, §2, §3

[3] = biological target: T3, cynoTNC (recombinant cynomolgus TnC antigen) (cynomolgus, biotin on the C-terminal avi-tag where used biotinylated (Example 5)); assay: as above
T3 construct: GST may have been cleaved off by thrombin; The text says this construct lacks the C domain
T3 chain: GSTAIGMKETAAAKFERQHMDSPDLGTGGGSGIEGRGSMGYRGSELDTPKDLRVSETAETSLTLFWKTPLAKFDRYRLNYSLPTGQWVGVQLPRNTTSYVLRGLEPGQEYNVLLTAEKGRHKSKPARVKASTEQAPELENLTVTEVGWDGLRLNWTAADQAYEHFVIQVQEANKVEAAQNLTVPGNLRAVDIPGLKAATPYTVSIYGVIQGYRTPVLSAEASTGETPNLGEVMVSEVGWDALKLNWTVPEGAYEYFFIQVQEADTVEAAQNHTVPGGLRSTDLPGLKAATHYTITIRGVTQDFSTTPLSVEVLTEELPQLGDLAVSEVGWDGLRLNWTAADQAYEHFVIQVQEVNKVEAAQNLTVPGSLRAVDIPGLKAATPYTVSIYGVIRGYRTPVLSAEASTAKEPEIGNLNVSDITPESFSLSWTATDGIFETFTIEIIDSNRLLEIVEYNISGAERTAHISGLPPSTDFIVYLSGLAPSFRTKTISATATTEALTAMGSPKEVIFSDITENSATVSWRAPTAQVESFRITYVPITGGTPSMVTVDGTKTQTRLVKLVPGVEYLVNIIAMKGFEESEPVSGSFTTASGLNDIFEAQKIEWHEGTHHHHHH
Protocol: as §1, §2, §3

[4] = biological target: T4, human TnC on TnC-expressing U87-MG glioblastoma cells (human, UniProt P24821 23-2201); assay: flow cytometry on TnC-expressing U87-MG cells
T4 construct: whole, on cells; also called human-TnC expressing U87-MG

[5] = biological target: T5, GST TNC hu fn5 B-C fn6 B (human, biotin on the C-terminal avi-tag (BirA, site-specific)); assay: SPR ProteOn XPR36, biotinylated antigen on NLC chip, Fab as analyte, 25 C
T5 chain: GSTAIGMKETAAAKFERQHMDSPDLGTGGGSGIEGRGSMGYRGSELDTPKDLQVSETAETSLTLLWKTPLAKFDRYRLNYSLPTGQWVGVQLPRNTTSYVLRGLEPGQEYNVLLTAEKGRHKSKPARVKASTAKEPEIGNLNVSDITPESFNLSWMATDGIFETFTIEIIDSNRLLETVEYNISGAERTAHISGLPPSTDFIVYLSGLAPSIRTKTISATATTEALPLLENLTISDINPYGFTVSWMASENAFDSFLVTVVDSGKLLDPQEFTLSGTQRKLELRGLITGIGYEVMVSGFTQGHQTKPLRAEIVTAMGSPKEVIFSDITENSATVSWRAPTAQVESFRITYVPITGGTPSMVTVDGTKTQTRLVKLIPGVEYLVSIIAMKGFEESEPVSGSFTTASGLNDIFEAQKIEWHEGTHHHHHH
Protocol: (§4) Immobilization of antigens (ligand): Recombinant antigens were diluted with PBST (10 mM phosphate, 150 mM sodium chloride pH 7.4, 0.005% Tween 20) to 10 μg/ml, then injected at 30 μl/minute in vertical orientation. Injection of analytes: For ‘one-shot kinetics’ measurements, injection direction was changed to horizontal orientation, two-fold dilution series of purified Fab were injected simultaneously along separate channels 1-5, with association times of 200 s, and dissociation times of 240 s, respectively. Buffer (PBST) was injected along the sixth channel to provide an “in-line” blank for referencing. Association rate constants (kₒₙ) and dissociation rate constants (koff) were calculated using a simple one-to-one Langmuir binding model in ProteOn Manager v3.1 software by simultaneously fitting the association and dissociation sensorgrams. The equilibrium dissociation constant (KD) was calculated as the ratio koff/kₒₙ.

[6] = biological target: T6, GST huTNC fn5 A1234 BC fn6 B (human, UniProt P24821 984-1798, biotin on the C-terminal avi-tag (BirA, site-specific)); assay: as above
T6 construct: also called Human GST-fused TnC fn5 A1234 BC fn6
T6 sequence: T1 sequence
Protocol: as §4

T4 sequence (P24821 23-2201): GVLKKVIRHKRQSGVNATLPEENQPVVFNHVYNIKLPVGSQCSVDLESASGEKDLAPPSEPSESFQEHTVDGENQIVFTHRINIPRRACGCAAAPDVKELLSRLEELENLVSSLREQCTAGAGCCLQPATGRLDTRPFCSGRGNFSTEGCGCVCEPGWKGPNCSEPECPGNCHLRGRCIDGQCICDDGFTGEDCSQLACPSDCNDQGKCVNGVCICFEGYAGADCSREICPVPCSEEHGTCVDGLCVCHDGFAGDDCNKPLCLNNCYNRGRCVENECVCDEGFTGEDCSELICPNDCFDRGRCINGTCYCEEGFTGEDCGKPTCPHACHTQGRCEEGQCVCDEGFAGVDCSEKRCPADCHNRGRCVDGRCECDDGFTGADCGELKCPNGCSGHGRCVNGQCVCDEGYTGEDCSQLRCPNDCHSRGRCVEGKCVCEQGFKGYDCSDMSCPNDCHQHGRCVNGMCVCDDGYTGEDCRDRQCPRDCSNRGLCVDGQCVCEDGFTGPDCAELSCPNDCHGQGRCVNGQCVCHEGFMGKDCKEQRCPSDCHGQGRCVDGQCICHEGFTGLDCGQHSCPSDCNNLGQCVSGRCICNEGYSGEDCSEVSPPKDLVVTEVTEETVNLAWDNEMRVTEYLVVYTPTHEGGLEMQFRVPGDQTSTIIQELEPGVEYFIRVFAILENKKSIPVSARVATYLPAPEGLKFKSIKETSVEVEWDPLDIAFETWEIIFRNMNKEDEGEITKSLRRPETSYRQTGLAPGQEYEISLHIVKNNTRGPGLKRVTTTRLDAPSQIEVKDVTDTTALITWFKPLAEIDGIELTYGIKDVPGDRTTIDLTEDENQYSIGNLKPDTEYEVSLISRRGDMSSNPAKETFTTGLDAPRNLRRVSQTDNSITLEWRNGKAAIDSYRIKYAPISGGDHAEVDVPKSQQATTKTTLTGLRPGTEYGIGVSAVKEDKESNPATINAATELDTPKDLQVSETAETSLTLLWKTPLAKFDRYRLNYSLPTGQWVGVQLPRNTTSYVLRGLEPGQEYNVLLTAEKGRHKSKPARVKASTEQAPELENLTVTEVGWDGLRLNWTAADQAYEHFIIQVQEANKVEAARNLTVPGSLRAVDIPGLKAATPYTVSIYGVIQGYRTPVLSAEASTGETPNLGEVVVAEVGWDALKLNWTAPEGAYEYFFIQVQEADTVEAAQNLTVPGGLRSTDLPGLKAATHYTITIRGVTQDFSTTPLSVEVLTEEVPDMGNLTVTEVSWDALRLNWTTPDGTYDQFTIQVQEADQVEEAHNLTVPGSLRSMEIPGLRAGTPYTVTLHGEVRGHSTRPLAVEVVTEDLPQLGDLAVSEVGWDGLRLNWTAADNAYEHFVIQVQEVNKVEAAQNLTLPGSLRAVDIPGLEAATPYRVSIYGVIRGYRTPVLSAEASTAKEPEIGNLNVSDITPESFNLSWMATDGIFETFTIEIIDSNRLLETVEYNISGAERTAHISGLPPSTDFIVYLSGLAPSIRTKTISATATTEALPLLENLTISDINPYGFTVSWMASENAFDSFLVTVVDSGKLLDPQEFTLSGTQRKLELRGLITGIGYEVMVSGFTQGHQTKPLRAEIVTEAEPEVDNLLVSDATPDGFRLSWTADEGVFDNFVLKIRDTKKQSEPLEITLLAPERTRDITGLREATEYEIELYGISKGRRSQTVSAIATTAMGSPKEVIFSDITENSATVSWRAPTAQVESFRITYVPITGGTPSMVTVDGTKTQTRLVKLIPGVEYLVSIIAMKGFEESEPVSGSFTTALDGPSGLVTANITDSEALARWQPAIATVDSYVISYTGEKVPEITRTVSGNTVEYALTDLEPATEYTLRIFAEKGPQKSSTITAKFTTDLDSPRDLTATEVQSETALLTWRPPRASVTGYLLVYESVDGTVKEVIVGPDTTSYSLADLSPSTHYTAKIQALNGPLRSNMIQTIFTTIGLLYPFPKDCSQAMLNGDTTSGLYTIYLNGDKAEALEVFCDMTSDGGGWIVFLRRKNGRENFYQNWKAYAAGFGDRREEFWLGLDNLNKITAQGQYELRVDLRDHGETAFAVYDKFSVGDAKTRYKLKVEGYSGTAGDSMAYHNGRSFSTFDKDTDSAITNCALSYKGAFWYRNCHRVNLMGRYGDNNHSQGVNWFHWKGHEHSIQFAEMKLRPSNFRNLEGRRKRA

B1: anti-TnC 18D4 wild type human IgG1 (antibody)
heavy: not shown
light: DIQMTQSPSTLSASVGDRVTITCRASQSISSWLAWYQQKPGKAPKLLIYDASSLESGVPSRFSGSGSGTEFTLTISSLQPDDFATYYCQQNKKFPSGTFGQGTKVEIKRTVAAPSVFIFPPSDEQLKSGTASVVCLLNNFYPREAKVQWKVDNALQSGNSQESVTEQDSKDSTYSLSSTLTLSKADYEKHKVYACEVTHQGLSSPVTKSFNRGEC
notes: also called 18D4 IgG wt Fc; a-TnC(18D4) huIgG1
Kd [1]: 0.093 nM | Kd [2]: 0.061 nM | Kd [3]: 0.036 nM

B2: anti-TnC(18D4) huIgG1 P329G LALA (antibody)
heavy: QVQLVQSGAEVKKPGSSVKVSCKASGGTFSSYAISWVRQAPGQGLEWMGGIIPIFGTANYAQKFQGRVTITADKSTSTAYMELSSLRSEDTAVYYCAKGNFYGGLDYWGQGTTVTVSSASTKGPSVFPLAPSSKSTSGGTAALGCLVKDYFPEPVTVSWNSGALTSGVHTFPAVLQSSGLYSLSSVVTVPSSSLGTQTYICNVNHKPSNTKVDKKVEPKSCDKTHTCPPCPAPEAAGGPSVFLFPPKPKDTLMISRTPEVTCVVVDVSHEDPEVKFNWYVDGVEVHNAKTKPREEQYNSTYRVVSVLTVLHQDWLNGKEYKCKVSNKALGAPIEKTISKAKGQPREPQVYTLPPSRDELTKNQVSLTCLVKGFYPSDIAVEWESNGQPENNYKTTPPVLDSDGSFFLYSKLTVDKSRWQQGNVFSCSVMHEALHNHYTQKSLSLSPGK
light: B1 light
notes: also called 18D4 IgG PG/LALA; 18D4 IgG PGLALA
Kd [1]: 0.032 nM | Kd [2]: 0.03 nM | Kd [3]: 0.011 nM | EC50 [4]: 4.24 nM

B3: anti-TnC clone 11C7 rabbit IgG (antibody, V domains shown)
VH: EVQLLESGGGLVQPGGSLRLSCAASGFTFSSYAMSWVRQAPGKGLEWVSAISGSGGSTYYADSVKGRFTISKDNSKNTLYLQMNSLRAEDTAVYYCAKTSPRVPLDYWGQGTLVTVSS
VL: SSELTQDPAVSVALGQTVRVTCQGDSLRSYYASWYQQKPGQAPVLVIYGKNNRPSGIPDRFSGSSSGNTASLTITGAQAEDEADYYCNSINSTRNEVFGGGTKLTVL
notes: also called llC7 rb IgG; 11C7 (rb IgG)
Kd [1]: 0.029 nM

B4: anti-TnC clone 11C7 Fab (Fab, V domains shown)
VH: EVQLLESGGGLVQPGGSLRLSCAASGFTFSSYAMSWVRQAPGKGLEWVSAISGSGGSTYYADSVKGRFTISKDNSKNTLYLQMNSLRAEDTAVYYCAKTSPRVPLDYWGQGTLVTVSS
VL: B3 VL
notes: Bacterially expressed purified Fab from the lambda-DP47 phage library format (lambda CL, CH1, tags)
Kd [5]: 1 nM | Kd [6]: 2.3 nM

— patent publication US20190248877A1 (Hoffmann-La Roche, published 2019)
